Common to all, as to assay: cell-based or functional assay
In experiment [1] the target is T1, human glucose-dependent insulinotropic polypeptide (GIP) receptor (human) (UniProt P48546).
T1 sequence (looked up): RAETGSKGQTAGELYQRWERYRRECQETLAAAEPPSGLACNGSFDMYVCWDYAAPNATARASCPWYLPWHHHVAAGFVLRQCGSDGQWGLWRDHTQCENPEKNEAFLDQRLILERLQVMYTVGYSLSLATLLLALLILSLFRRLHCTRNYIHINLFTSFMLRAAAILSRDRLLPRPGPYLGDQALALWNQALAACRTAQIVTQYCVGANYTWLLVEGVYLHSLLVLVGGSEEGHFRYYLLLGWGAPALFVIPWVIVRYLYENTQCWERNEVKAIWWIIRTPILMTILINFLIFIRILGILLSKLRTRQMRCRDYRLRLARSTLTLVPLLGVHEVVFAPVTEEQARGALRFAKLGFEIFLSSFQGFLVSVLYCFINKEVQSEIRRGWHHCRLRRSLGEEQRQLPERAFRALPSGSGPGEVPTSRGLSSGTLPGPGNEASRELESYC

Experiment [2] deals with human glucagon receptor (human) (UniProt P47871).
Experiment [3] addresses human glucagon-like peptide-1 (GLP-1) receptor (human) (UniProt P43220).
Another experiment has as its target human GLP-1 receptor (human, UniProt P43220 24-463).
The target of the next experiment is T2, human GIP receptor (human, UniProt P48546 22-466).
T2 sequence (looked up): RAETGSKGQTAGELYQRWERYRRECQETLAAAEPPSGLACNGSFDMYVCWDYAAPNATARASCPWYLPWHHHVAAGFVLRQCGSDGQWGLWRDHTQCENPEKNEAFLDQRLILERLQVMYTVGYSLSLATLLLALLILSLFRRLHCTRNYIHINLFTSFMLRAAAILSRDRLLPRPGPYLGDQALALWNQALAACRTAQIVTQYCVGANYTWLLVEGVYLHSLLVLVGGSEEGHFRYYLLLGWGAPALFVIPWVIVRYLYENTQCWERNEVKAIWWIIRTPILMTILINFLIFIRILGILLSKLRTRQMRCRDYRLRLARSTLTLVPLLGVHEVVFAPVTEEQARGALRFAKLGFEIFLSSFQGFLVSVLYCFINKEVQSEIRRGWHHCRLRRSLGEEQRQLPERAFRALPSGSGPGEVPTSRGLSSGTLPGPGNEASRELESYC

The next experiment addresses human glucagon receptor (human, UniProt P47871 26-477).

B1: Example 244 (peptide)
peptide: YXEGTXTSDXXIXLDXKAQXEFIXXLIKGGPSSGAPPPS
modifications: Y-Aib-EGT-αMeF(2F)-TSD-4Pal-Aib-I-αMeL-LD-Orn-K((2-[2-(2-Amino-ethoxy)-ethoxy]-acetyl)2-(γ-Glu)-(10-(4-carboxyphenoxy)decanoyl))AQ-Aib-EFI-(D-Glu)-αMeY-LIK((2-[2-(2-Amino-ethoxy)-ethoxy]-acetyl)2-(γ-Glu)-(10-(4-carboxyphenoxy)decanoyl))GGPSSGAPPPS-NH2
Take B1: the cAMP EC50 in experiment [1] is 0.0218 nM; in experiment [2], greater than 9950 nM; in experiment [3] it was 2.25 nM. Also, the cAMP Emax turned out to be 101% in experiment [1] and 104% in experiment [3]. Moreover, the “cAMP EC50 (1.0% HSA)” value came to 30.8 nM in the experiment with human GLP-1 receptor and 0.983 nM with human GIP receptor.

B2: Example 230 (peptide)
peptide: YXEGTXTSDYXIXLDXKAQXKFIXXLIEGGPSSGAPPPS
modifications: Y-Aib-EGT-αMeF(2F)-TSDY-Aib-I-αMeL-LD-Orn-K((2-[2-(2-Amino-ethoxy)-ethoxy]-acetyl)2-(γ-Glu)-CO-(CH2)12-CO2H)AQ-Aib-K((2-[2-(2-Amino-ethoxy)-ethoxy]-acetyl)2-(γ-Glu)-CO-(CH2)12-CO2H)FI-(D-Glu)-αMeY-LIEGGPSSGAPPPS-NH2
For the molecule B2, the cAMP EC50 was 0.0199 nM in experiment [1], greater than 9950 nM in experiment [2] and 0.726 nM in experiment [3]. Also, the figures for the cAMP Emax in experiment [1] and in experiment [3] were 105% and 90.3%, respectively. Also, the “cAMP EC50 (1.0% HSA)” value is 49.7 nM in the experiment with human GLP-1 receptor, greater than 9950 nM with human glucagon receptor and 2.57 nM with human GIP receptor. In addition, in the experiment with human GIP receptor, the “cAMP Emax (1.0% HSA)” value amounted to 85.8%.

B3: Example 223 (peptide)
peptide: YXEGTXTSDXSIXLDXIAQXEFIXXLIKGGPSSGAPPPSK
modifications: Y-Aib-EGT-αMeF(2F)-TSD-4Pal-SI-αMeL-LD-Orn-IAQ-Aib-EFI-(D-Glu)-αMeY-LIK((2-[2-(2-Amino-ethoxy)-ethoxy]-acetyl)2-CO-(CH2)12-CO2H)GGPSSGAPPPSK((2-[2-(2-Amino-ethoxy)-ethoxy]-acetyl)2-CO-(CH2)12-CO2H)-NH2
On to B3, for which the cAMP EC50 in experiment [1] was 0.0252 nM; in experiment [2] it was greater than 9950 nM; in experiment [3], 1.43 nM. Also, the cAMP Emax turned out to be 103% in experiment [1] and 94% in experiment [3]. The “cAMP EC50 (1.0% HSA)” value with human GLP-1 receptor was 90.5 nM; with human glucagon receptor, greater than 9950 nM; with human GIP receptor, 7.84 nM. Further, the “cAMP Emax (1.0% HSA)” value worked out at 115% with human GLP-1 receptor and 79.2% with human GIP receptor.

B4: Example 232 (peptide)
peptide: YXEGTXTSDYXIXLDXKAQXEFIXXLIEGGPSSGAPPPSK
modifications: Y-Aib-EGT-αMeF(2F)-TSDY-Aib-I-αMeL-LD-Orn-K((2-[2-(2-Amino-ethoxy)-ethoxy]-acetyl)2-(γ-Glu)-CO-(CH2)12-CO2H)AQ-Aib-EFI-(D-Glu)-αMeY-LIEGGPSSGAPPPSK((2-[2-(2-Amino-ethoxy)-ethoxyl-acetyl)2-(γ-Glu)-CO-(CH2)12-CO2H)-NH2
With B4, the cAMP EC50 in experiment [1] is 0.0192 nM; in experiment [2], greater than 9950 nM; in experiment [3], 0.565 nM. The cAMP Emax in experiment [1] was 101%; in experiment [3], 103%. Moreover, the results for the “cAMP EC50 (1.0% HSA)” value with human GLP-1 receptor, with human glucagon receptor and with human GIP receptor were 33.6 nM, greater than 9950 nM and 1.86 nM, respectively. For the same molecule, the “cAMP Emax (1.0% HSA)” value in the experiment with human GLP-1 receptor stood at 95.4%.

B5: Example 229 (peptide)
peptide: YXEGTXTSDXSIXLDXIAQXEFIXXLIKGGPSSGAPPPSK
modifications: Y-Aib-EGT-αMeF(2F)-TSD-4Pal-SI-αMeL-LD-Orn-IAQ-Aib-EFI-(D-Glu)-αMeY-LIK((2-[2-(2-Amino-ethoxy)-ethoxy]-acetyl)3-(γ-Glu)-CO-(CH2)12-CO2H)GGPSSGAPPPSK((2-[2-(2-Amino-ethoxy)-ethoxy]-acetyl)3-(γ-Glu)-CO-(CH2)12-CO2H)-NH2
As to B5, the cAMP EC50 in experiment [1] is 0.0253 nM; in experiment [2], greater than 9950 nM; in experiment [3] it was 2.25 nM. Further, the cAMP Emax in experiment [1] worked out at 103%; in experiment [3], 94.3%. For the same molecule, the entries for the “cAMP EC50 (1.0% HSA)” value with human GLP-1 receptor, with human glucagon receptor and in the experiment with human GIP receptor were 135 nM, greater than 9950 nM and 7.35 nM, respectively. In addition, the “cAMP Emax (1.0% HSA)” value came out at 99% with human GLP-1 receptor and 80.5% in the experiment with human GIP receptor.

The values above are taken from patent publication US20230265151A1, “GIP/GLP1 CO-AGONIST COMPOUNDS” (priority 2020, published 2023).
